{
  "source": "paper PMC11927663",
  "about": "(Science Advances, 2025)",
  "target": "β-subunit of nerve growth factor (UniProt P01138 122-241)",
  "sequence (P01138 122-241)": "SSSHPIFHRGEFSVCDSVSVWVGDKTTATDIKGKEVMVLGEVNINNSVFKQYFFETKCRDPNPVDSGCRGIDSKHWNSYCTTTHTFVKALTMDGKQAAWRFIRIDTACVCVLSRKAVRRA",
  "assay": "ELISA",
  "note": "Where no end group is shown, it is not given here.",
  "data": [
    {"binder": "NERALTLGEEGAVVK (also: displayed on M13 phage)", "note": "[NK-displaying M13 phage (β-NGF-binding peptide NK displayed on M13 phage)]", "values": [
      {"measurement": "fold increase in ELISA absorbance", "result": 4, "unit": "fold"}
    ]}
  ]
}
